From article PMC5454392, “Selective BET bromodomain inhibition as an antifungal therapeutic strategy” (Nature Communications, 2017)
Numbered stars: 1 amine (or outer) side, 2 acyl side, 3 side chain; on linkers, the order of the positions; unused ones are H or OH. Square brackets hold non-standard residues; d marks the D form. Ends that are not written are not given here. Arg(Me2a) = CN(C)C(=N)NCCC[C@H](N)C(=O)O; Kac = CC(=O)NCCCC[C@H](N[*:1])C(=O)[*:2]; Lys(Me3) = C[N+](C)(C)CCCC[C@H](N)C(=O)O; Arg(Me2s) = CN=C(NC)NCCC[C@H](N)C(=O)O; pT = C[C@@H](OP(=O)(O)O)[C@H](N)C(=O)O; Lys(Me2) = CN(C)CCCC[C@H](N)C(=O)O; pS = N[C@@H](COP(=O)(O)O)C(=O)O; Cit = NC(=O)NCCC[C@H](N)C(=O)O; Lys(Me) = CNCCCC[C@H](N)C(=O)O; Me2a = not defined here

T1: CaBdf1 BD2 (GST-tagged, wild-type) (Candida albicans (strain SC5314 / ATCC …, UniProt Q5A4W8))
T1 chain: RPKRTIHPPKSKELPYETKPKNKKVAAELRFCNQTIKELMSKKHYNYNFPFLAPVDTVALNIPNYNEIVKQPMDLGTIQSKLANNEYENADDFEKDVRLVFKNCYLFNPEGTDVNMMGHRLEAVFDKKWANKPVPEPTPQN

T2: CaBdf1 BD1 (GST-tagged, wild-type) (Candida albicans (strain SC5314 / ATCC …, UniProt Q5A4W8))
T2 chain: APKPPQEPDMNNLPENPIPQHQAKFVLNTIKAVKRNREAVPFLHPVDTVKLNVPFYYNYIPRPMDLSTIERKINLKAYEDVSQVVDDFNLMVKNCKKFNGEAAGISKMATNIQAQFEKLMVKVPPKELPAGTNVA

B1: c-myc tag (peptide)
chain: EQKLISEEDLA
modifications: histone peptide post-translational modifications (acetyl, methyl, phospho, citrulline) listed in columns 4-7 and embedded in the sequence text; N-terminus free or acetylated in column 8
B2: H3 26-45 (peptide)
chain: RKSAPATGGVKKPHRYRPG
modifications: not fully specified; histone peptide post-translational modifications (acetyl, methyl, phospho, citrulline) listed in columns 4-7 and embedded in the sequence text; N-terminus free or acetylated in column 8

Experiments:
[1] = molecular target: T1, CaBdf1 BD2 (GST-tagged, wild-type); experiment: histone peptide array (Active Motif MODified), 1 uM GST-tagged bromodomain, anti-GST detection, normalized mean intensity
[2] = molecular target: T2, CaBdf1 BD1 (GST-tagged, wild-type); experiment: as above

Binder | binding score [1] | binding score [2]
SGRGKGGKGLGKGGAKRHR (S G Rme2a G K G G K G L G K G G A K R H R) | 0.0215 | 0.00906
SGRGKGGKGLGKGGAKRHR (pS G Rme2s G Kac G G K G L G K G G A K R H R) | 0.00555 | 0.0131
RKSAPATGGVKKPHRYRPG (R K S A P A T G G V Kme1 K P H R Y R P G) | 0.00481 | 0.00616
PDPAK(Ac)SAPAPKK(Ac)GSKKAVT | 0.00555 | 0.017
ARTKQTARKSTGGKAPRKQ (A R T K Q T A R Kac S T G G Kac A P R K Q) | 0.0211 | 0.095
A[Arg(Me2s)][pT]K(Ac)QTARKSTGGKAPRKQ | 0.00333 | 0.00761
SGRGKGGKGLGKGGAKRHR (S G Rme2s G Kac G G K G L G K G G A K R H R) | 0.00555 | 0.0225
PDPAKSAPAPKKG[pS]K(Ac)KAVT | 0.145 | 0.0914
PRKQLATKAAR(Me2a)K(Me3)[pS]APATGG (reading uncertain) | 0.00296 | 0.00218
SGRGKGGKGLGKGGAKRHR (S G R G Kac G G K G L G K G G A K R H R) | 0.0241 | 0.0185
A[Arg(Me2s)]TKQTARKSTGGKAPRKQ | 0.0037 | 0.000725
K[Lys(Me)][Lys(Me2)][Lys(Me3)]K(Ac)R[Arg(Me2s)]R[Arg(Me2a)]R[Cit]K[Lys(Me)]K(Ac)[Lys(Me3)]RK [background 01] | 0.00629 | 0.00906
SGRGKGGKGLGKGGAKRHR (S G R G K G G Kac G L G K G G A K R H R) | 0.027 | 0.0344
A[Arg(Me2a)]T[Kac]QTAR[Kac]STGGKAPRKQ | 0.00851 | 0.046
PRKQLATKAAR(Me2s)K[pS]APATGG | 0.00444 | 0.00181
A[Arg(Me2s)]T[Lys(Me2)]QTA[Arg(Me2a)][Lys(Me)]STGGKAPRKQ | 0.0037 | 0.00544
ARTKQTARKSTGGKAPRKQ (A Rme2s T Kme2 Q T A Rme2s K S T G G K A P R K Q) | 0.00629 | 0.00181
ARTKQTARKSTGGKAPRKQ (A R T K Q T A Rme2s Kme3 pS T G G K A P R K Q) | 0.00333 | 0.00508
ARTKQTARKSTGGKAPRKQ (A R T K Q T A Rme2s K S T G G K A P R K Q) | 0.00148 | 0.00218
ARTKQTARKSTGGKAPRKQ (A R T K Q T A Rme2a Kme3 pS T G G K A P R K Q) | 0.00333 | 0.00254
SGRGKGGKGLGKGGAKRHR (S G R G Kac G G Kac G L G K G G A K R H R) | 0.0326 | 0.0294
SGRGKQGGK(Ac)ARAK(Ac)AKSRSS | 0.0481 | 0.178
A[Arg(Me2s)]T[Kac]QTA[Arg(Me2s)][Lys(Me2)]STGGKAPRKQ | 0.00666 | 0.00725
ARTKQTARKSTGGKAPRKQ (A Rme2s T Kme2 Q T A Rme2s Kme2 S T G G K A P R K Q) | 0.00407 | 0.00435
ARTKQTARKSTGGKAPRKQ (A R T K Q T A Rme2a Kme3 S pT G G K A P R K Q) | 0.00555 | 0.00653

Binder | binding score [1] | binding score [2]
PRKQLATKAA[Arg(Me2s)]K(Ac)[pS]APATGG | 0.00629 | 0.00145
AR[pT]KQTARKSTGGKAPRKQ | 0.00259 | 0
ARTKQTARKSTGGKAPRKQ (A R T K Q T A R Kme1 S pT G G K A P R K Q) | 0.0037 | 0.00326
PRKQLATKAAR(Me2s)K(Me2)[pS]APATGG | 0.00074 | 0.00363
ARTKQTARKSTGGKAPRKQ (A R T K Q T A R Kme2 S pT G G K A P R K Q) | 0.00185 | 0.00544
PDPAK(Ac)SAPAPKK(Ac)GSK(Ac)KAVT | 0.137 | 0.0616
PRKQLATKAARKSAPATGG (P R K Q L A T K A A R Kme2 S A P A T G G) | 0.00666 | 0.00254
SGRGKGGKGLGKGGAKRHR (pS G Rme2a G Kac G G Kac G L G K G G A K R H R) | 0.0396 | 0.0312
[pS]GRGKQGGK(Ac)ARAKAKSRSS | 0.0137 | 0.0174
SGRGKGGKGLGKGGAKRHR (S G R G Kac G G Kac G L G Kac G G A Kac R H R) | 0.902 | 0.471
ARTKQTARKSTGGKAPRKQ (A R T K Q T A Rme2a Kme3 pS pT G G K A P R K Q) | 0.0037 | 0.00326
ARTKQTARKSTGGKAPRKQ (A Rme2s T Kac Q T A Rme2s Kme3 S T G G K A P R K Q) | 0.00555 | 0.00834
SGRGKGGKGLGKGGAKRHR (S G R G K G G K G L G Kac G G A Kac R H R) | 0.0248 | 0.0743
ARTKQTA[Arg(Me2s)][Lys(Me)][pS]TGGKAPRKQ | 0.00259 | 0.00508
AR(me2s)TK(Me)QTAR(me2s)K(me3)STGGKAPRKQ | 0.00629 | 0.0029
ARTK(Me)QTAR(me2s)K(me3)STGGKAPRKQ | 0.00407 | 0.00435
ARTK(Ac)QTARKSTGGKAPRKQ | 0.00222 | 0.00363
SGRGKGGKGLGKGGAKRHR (S G R G K G G K G L G Kac G G A K R H R) | 0.00851 | 0.033
[pS]GRGK(Ac)QGGK(Ac)ARAKAKSRSS | 0.00925 | 0.0381
SGRGK(Ac)QGGK(Ac)ARAK(Ac)AKSRSS | 0.00888 | 0.0591
ARTKQTARKSTGGKAPRKQ (A Rme2a T Kme1 Q T A Rme2a Kme1 S T G G K A P R K Q) | 0.00259 | 0.00363
PRKQLATKAARK(Me)SAPATGG | 0.00333 | 0.00798
ARTKQTARKSTGGKAPRKQ (A R T Kac Q T A Rme2a Kme1 S T G G K A P R K Q) | 0.00555 | 0.00834
B1 | 1 | 1.01
B2 | 0.00296 | 0.00508
